Reference: patent US20240123068A1 (KITE PHARMA, published 2024)

Tests used:
[1] = target: FCGR1A (FCGR protein) of the membrane proteome array (human) (UniProt P12314); assay: validation titration, flow cytometry on transfected HEK-293T cells
[2] = target: Protein A (positive assay control transfected into cells) (UniProt P38507); assay: as above
[3] = target: T1, Human CD19, wild-type full-length protein expressed on cells (human, UniProt P15391 20-556); assay: scFv clone screen on NALM6 cells with and without CD19
T1 construct: also called WT CD19; CD19 wild type protein
T1 sequence: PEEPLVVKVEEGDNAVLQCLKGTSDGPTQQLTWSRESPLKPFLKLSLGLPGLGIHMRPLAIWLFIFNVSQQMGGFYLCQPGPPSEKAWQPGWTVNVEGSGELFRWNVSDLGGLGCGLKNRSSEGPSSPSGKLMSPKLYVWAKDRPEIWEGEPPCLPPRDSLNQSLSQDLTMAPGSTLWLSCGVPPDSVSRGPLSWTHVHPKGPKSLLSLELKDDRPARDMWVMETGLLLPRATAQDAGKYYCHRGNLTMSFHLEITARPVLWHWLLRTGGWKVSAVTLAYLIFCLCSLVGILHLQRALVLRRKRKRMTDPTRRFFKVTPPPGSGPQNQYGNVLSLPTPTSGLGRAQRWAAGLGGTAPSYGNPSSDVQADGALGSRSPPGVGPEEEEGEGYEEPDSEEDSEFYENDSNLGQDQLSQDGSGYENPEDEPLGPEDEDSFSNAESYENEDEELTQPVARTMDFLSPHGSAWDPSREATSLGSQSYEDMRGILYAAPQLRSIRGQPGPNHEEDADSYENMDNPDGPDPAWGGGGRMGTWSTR
Text: To ensure that the up to (30) clones could recognize native CD19 expressed on tumor cells, the clones (scFv) were also screened against NALM6 tumor cell line positive (+) CD19 expression (NALM6 cell line⁺ CD19). CD19 knockout Nalm6 cell line (NALM6 cell line⁻ CD1; or CD19KO Nalm6 cell line) were used as a negative control for the selection. CD19KO Nalm6 cell lines used for the screen were engineered CRISPR knocked-out (KO) Nalm6-CD19KO cells. Clones that bound CD19⁺ NALM6 tumor cells, but not CD19-NALM6 tumor cells (CD19KO) were selected (Step 4).

[4] = target: T2, FITC-Labeled human CD19 protein (ACROBiosystem, Cat-CD9-HF251) (human, UniProt P15391 20-291, FITC label); assay: flow cytometry, CD19-FITC protein added after anti-FMC63 Ab PE; FITC gate; competitor anti-FMC63 Ab (untransduced 0.86)
T2 construct: The text calls the same reagent CD19-FITC and CD19-GFP; also called CD19-FITC protein; CD19-FTC protein
T2 sequence (looked up): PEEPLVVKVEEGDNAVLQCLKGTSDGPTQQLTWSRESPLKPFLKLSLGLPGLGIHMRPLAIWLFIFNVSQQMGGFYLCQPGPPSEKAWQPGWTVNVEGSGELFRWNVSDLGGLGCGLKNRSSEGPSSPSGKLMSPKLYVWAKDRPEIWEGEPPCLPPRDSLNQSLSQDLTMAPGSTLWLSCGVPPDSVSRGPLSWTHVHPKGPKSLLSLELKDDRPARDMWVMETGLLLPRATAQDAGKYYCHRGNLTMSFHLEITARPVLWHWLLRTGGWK
Experimental: To determine whether the anti-FMC63 antibody and the CD19 binders could bind the same region on the CD19 protein, competitive assays were performed. In the first set of experiments, the CD19 CAR T cells were first incubated with 1 ul of anti-FMC63 antibody PE for 20 minutes. After the incubation period, 2 ul of the CD19-FITC protein was added to the CAR T cells, which were further incubated for another 20 minutes. The CAR T cells were washed and assessed by Flow cytometry. The CAR T cells were gated for anti-FMC63 antibody (idiotype antibody binding) and the CD19 CAR binders (CD19-GFP detection).

[5] = target: T2, FITC-Labeled human CD19 protein …; assay: flow cytometry, premixed CD19-FITC protein and anti-CD19 PE (FMC63 clone) 1:3; FITC gate; competitor anti-CD19 PE (untransduced 0.21)
Experimental: (§1) In the second set of assays, CAR T cells were co-incubated with the CD19-FTC protein and the anti-CD19 PE (FMC63 clones) at 1:1 or 1:3 ratio for 15 minutes. The CAR T cells were then stained and incubated for 20 minutes before imaging by flow cytometry. […] The CAR T cells were gated for anti-CD19 PE (anti-FMC63 antibody; idiotype antibody binding) and the CD19 binder CAR binder FITC (CD19-GFP detection).

[6] = target: T1, Human CD19, wild-type full-length …; assay: cell-based or functional assay
[7] = target: T2, FITC-Labeled human CD19 protein …; assay: flow cytometry, premixed CD19-FITC protein and anti-CD19 PE (FMC63 clone) 1:1; FITC gate; competitor anti-CD19 PE (untransduced 0.21)
Experimental: as §1

[8] = target: T2, FITC-Labeled human CD19 protein …; assay: flow cytometry, ND539 CAR T cells day 9, CD19-FITC protein only (untransduced 0.85)
Experimental: At day 9 (D9) post-transduction, frozen ND539 CAR T cells were incubated with a fluorescently labeled recombinant CD19 protein. The CD19 CAR T cells were then analyzed by flow cytometry to determine the binding of the recombinant molecules to the CD19 CAR T cells. ND539 CAR T cells expressing a CAR comprising a FMC63 binder were used as control. Flow was gated for CD19 binder CAR.

Chain of FCGR1A (FCGR protein) of the membrane proteome array (human) (P12314 16-374): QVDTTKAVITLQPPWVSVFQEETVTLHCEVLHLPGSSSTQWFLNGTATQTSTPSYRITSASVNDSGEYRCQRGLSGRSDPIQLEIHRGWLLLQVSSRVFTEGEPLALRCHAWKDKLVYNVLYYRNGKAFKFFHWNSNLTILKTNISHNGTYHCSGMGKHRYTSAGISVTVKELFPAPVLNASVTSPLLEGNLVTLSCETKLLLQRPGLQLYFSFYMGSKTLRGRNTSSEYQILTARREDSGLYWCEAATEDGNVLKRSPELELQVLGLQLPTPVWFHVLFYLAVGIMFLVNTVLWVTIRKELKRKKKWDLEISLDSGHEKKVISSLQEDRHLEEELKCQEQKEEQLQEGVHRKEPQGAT

Q: What does the source list for isotype control article (Example 13)?
A: MFI signal, fold above negative control [1]: > 45 fold; MFI signal, fold above negative control [2]: > 190 fold

B1: CD19 18 scFv (P11) (scFv)
scFv: QSVLTQPPSVSGAPGQRVTISCTGSSSNIGAGYDVHWYQQLPGTAPKLLIYGTKNRPSGVPDRFSGSKSGTSASLAITGLQAEDEADYYCQSYDVRLKGWVFGGGTKLTVLGGGGSGGGGSGGGGSQLQLQESGPGLVKPSETLSLTCTVSGGSITSSSYYWGWIRQPPGKGLEWIGSIYYTGTTYYNPSLKSRVTISVDTSKNQFSLKLSSVTAADTAVYYCARYVGLSGGFDYWGQGTLVTVSS
notes: also called 52; clone 52
Q: Does B1 bind [3]?
A: Result: binds

B2: CD19 16 scFv (P10) (scFv)
scFv: QSVLTQPPSVSGAPGQRVTISCTGSSSNIGAGYDVHWYQQLPGTAPKLLIYGNNNRPSGVPDRFSGSKSGTSASLAITGLQAEDEADYYCQSYDVSLGVWVFGGGTKLTVLGGGGSGGGGSGGGGSQLQLQESGPGLVKPSETLSLTCTVSGGSISSPSYYWGWIRQPPGKGLEWIGSIYYTGATYYNPSLKSRVTISVDTSKNQFSLKLSSVTAADTAVYYCARYGPAGVGFDYWGQGTLVTVSS
notes: also called 51; clone 51
Q: Does B2 bind [3]?
A: Result: binds

B3: CD19 7 scFv (P5) (scFv)
scFv: DIQMTQSPSSLSASVGDRVTITCRASQSISKYLNWYQQKPGKAPKLLIYDASSLQSGVPSRFSGSGSGTDFTLTISSLQPEDFATYYCQQSYTIPLTFGQGTKVEIKGGGGSGGGGSGGGGSQVQLVQSGAEVKKPGSSVKVSCKASGGTFSSYAFSWVRQAPGQGLEWMGGIVPLFGAVEYAQKFQGRVTITADESTSTAYMELSSLRSEDTAVYYCAREKGFYRYFDHWGQGTLVTVSS
notes: also called 46; clone 46
Q: Does B3 bind [3]?
A: Result: binds

B4: CD19 14 scFv (P8) (scFv)
scFv: DIQMTQSPSSLSASVGDRVTITCRASQSISNYLNWYQQKPGKAPKLLIYAASSLQSGVPSRFSGSGSGTDFTLTISSLQPEDFATYYCQQAYSAPITFGQGTKVEIKGGGGSGGGGSGGGGSEVQLLESGGGLVQPGGSLRLSCAASGFTFGDYAMSWVRQAPGKGLEWVSAISRGGHGTYYADSVKGRFTISRDNSKNTLYLQMNSLRAEDTAVYYCARLVGYGLDYWGQGTLVTVSS
notes: also called 49; clone 49
Q: Does B4 bind [3]?
A: Result: binds

B5: CD19 15 scFv (P9) (scFv)
scFv: DIQMTQSPSSLSASVGDRVTITCRASQPIRPYLNWYQQKPGKAPKLLIYDASSLQSGVPSRFSGSGSGTDFTLTISSLQPEDFATYYCQQSYSAPYTFGQGTKVEIKGGGGSGGGGSGGGGSEVQLLESGGGLVQPGGSLRLSCAASGFTFSSYAMSWVRQAPGKGLEWVSVISGGGANTYYADSVKGRFTISRDNSKNTLYLQMNSLRAEDTAVYYCARDWRYFDHWGQGTLVTVSS
notes: also called 50; clone 50
Q: Does B5 bind [3]?
A: Result: binds

B6: CD19 11 scFv (P7) (scFv)
scFv: DIQMTQSPSSLSASVGDRVTITCRASQSISSYLNWYQQKPGKAPKLLIYAASSLQSGVPSRFSGSGSGTDFTLTISSLQPEDFATYYCQQTGAVPYTFGQGTKVEIKGGGGSGGGGSGGGGSEVQLLESGGGLVQPGGSLRLSCAASGFTFRDYAMSWVRQAPGKGLEWVSAISESGIDTYYADSVKGRFTISRDNSKNTLYLQMNSLRAEDTAVYYCARVAGYDSDSSTYYDYMDVWGQGTLVTVSS
notes: also called 48; clone 48
Q: Does B6 bind [3]?
A: Result: binds

B7: CD19 10 scFv (P6) (scFv)
scFv: DIQMTQSPSSLSASVGDRVTITCRASQTISRYLNWYQQKPGKAPKLLIYAASSLQSGVPSRFSGSGSGTDFTLTISSLQPEDFATYYCQQSYRPPLTFGQGTKVEIKGGGGSGGGGSGGGGSEVQLLESGGGLVQPGGSLRLSCAASGFTFSSYAMSWVRQAPGKGLEWVSTISAGGHGTYYADSVKGRFTISRDNSKNTLYLQMNSLRAEDTAVYYCARGAGYFDYWGQGTLVTVSS
notes: also called 47; clone 47
Q: Does B7 bind [3]?
A: Result: binds

B8: CD19 23 scFv (P12) (scFv)
scFv: DIQMTQSPSSLSASVGDRVTITCRASQSIYSYLNWYQQKRGKAPKLLIYDASSLQSGVPSRFSGSGSGTDFTLTISSLQPEDFATYYCQQSYTAPPTFGQGTKVEIKGGGGSGGGGSGGGGSEVQLLESGGGLVQPGGSLRLSCAASGFTFSNYAMSWVRQAPGKGLEWVSAISESGHGTYYADSVKGRFTISRDNSKNTLYLQMNSLRAEDTAVYYCARLDWAGFDVWGQGTLVTVSS
notes: also called 53; clone 53
Q: Does B8 bind [3]?
A: Result: binds

B9: CD19 CAR comprising CD19 binder 52 (anti-CD19 scFv-BBz CAR) on T cells (other)
chain: QSVLTQPPSVSGAPGQRVTISCTGSSSNIGAGYDVHWYQQLPGTAPKLLIYGTKNRPSGVPDRFSGSKSGTSASLAITGLQAEDEADYYCQSYDVRLKGWVFGGGTKLTVLGGGGSGGGGSGGGGSQLQLQESGPGLVKPSETLSLTCTVSGGSITSSSYYWGWIRQPPGKGLEWIGSIYYTGTTYYNPSLKSRVTISVDTSKNQFSLKLSSVTAADTAVYYCARYVGLSGGFDYWGQGTLVTVSSTTTPAPRPPTPAPTIASQPLSLRPEACRPAAGGAVHTRGLDFACDIYIWAPLAGTCGVLLLSLVITLYCKRGRKKLLYIFKQPFMRPVQTTQEEDGCSCRFPEEEEGGCELRVKFSRSADAPAYKQGQNQLYNELNLGRREEYDVLDKRRGRDPEMGGKPRRKNPQEGLYNELQKDKMAEAYSEIGMKGERRRGKGHDGLYQGLSTATKDTYDALHMQALPPR
notes: also called CD19-52 CAR
Q: For B9, which “Gated for CD19 CAR Expression” value [4] is on record?
A: The value was 20.1 mfi.

Q: And the “Gated for CD19-CAR-FITC expression” value [5]?
A: Its value is 5.56 mfi.

Q: What about the “IL-2 & TNF-α, intracellular cytokine staining, Nalm6 stimulation, ND608 CAR T cells day 9” value [6] of the same molecule?
A: The value was 37%.

Q: And the “IL-2, intracellular cytokine staining, Nalm6 stimulation, ND608 CAR T cells day 9” value [6]?
A: Its value is 1.06%.

Q: And the “TNF-α, intracellular cytokine staining, Nalm6 stimulation, ND608 CAR T cells day 9” value [6]?
A: Its value is 36.1%.

Q: What about the “Gated for CD19-CAR-FITC expression” value [7] of the same molecule?
A: The value was 14.5 mfi.

Q: What about the “Gated for CD19-CAR expression” value [8] of the same molecule?
A: Its value is 30.4 mfi.

B10: CD19 CAR comprising CD19 binder 45 (anti-CD19 scFv-BBz CAR) on T cells (other)
chain: DIQMTQSPSSLSASVGDRVTITCRASQDITRYLNWYQQKPGKAPKLLIYAASSLQSGVPSRFSGSGSGTDFTLTISSLQPEDFATYYCQQSYSYPPTFGQGTKVEIKGGGGSGGGGSGGGGSQVQLVESGGGVVQPGRSLRLSCAASGFTFRDYGMHWVRQAPGKGLEWVAVISYEGSNEYYADSVKGRFTISRDNSKNTLYLQMNSLRAEDTAVYYCARDRGFAGWYDYAFDPWGQGTLVTVSSTTTPAPRPPTPAPTIASQPLSLRPEACRPAAGGAVHTRGLDFACDIYIWAPLAGTCGVLLLSLVITLYCKRGRKKLLYIFKQPFMRPVQTTQEEDGCSCRFPEEEEGGCELRVKFSRSADAPAYKQGQNQLYNELNLGRREEYDVLDKRRGRDPEMGGKPRRKNPQEGLYNELQKDKMAEAYSEIGMKGERRRGKGHDGLYQGLSTATKDTYDALHMQALPPR
notes: also called CD19-45 CAR; 45 original
Q: Which results are given for B10?
A: Gated for CD19 CAR Expression [4]: 17.7 mfi; Gated for CD19-CAR-FITC expression [5]: 4.76 mfi; IL-2 & TNF-α, intracellular cytokine staining, Nalm6 stimulation, ND608 CAR T cells day 9 [6]: 28.1%; IL-2, intracellular cytokine staining, Nalm6 stimulation, ND608 CAR T cells day 9 [6]: 1.16%; TNF-α, intracellular cytokine staining, Nalm6 stimulation, ND608 CAR T cells day 9 [6]: 25.2%; Gated for CD19-CAR-FITC expression [7]: 9.64 mfi; Gated for CD19-CAR expression [8]: 23.1 mfi
